Data published in patent US20050181450A1, “Novel inositol 1,4,5-trisphosphate (IP3) receptor-binding protein and an IP3 indicator” (priority 2002, published 2005).

B1: His-IRBIT: purified His-tagged IRBIT expressed in Sf9 cells (protein)
chain: MSMPDAMPLPGVGEELKQAKEIEDAEKYSFMATVTKAPKKQIQFADDMQEFTKFPTKTGRRSLSRSISQSSTDSYSSAASYTDSSDDEVSPREKQQTNSKGSSNFCVKNIKQAEFGRREIEIAEQDMSALISLRKRAQGEKPLAGAKIVGCTHITAQTAVLIETLCALGAQCRWSACNIYSTQNEVAAALAEAGVAVFAWKGESEDDFWWCIDRCVNMDGWQANMILDDGGDLTHWVYKKYPNVFKKIRGIVEESVTGVHRLYQLSKAGKLCVPAMNVNDSVTKQKFDNLYCCRESILDGLKRTTDVMFGGKQVVVCGYGEVGKGCCAALKALGAIVYITEIDPICALQACMDGFRVVKLNEVIRQVDVVITCTGNKNVVTREHLDRMKNSCIVCNMGHSNTEIDVTSLRTPELTWERVRSQVDHVIWPDGKRVVLLAEGRLLNLSCSTVPTFVLSITATTQALALIELYNAPEGRYKQDVYLLPKKMDEYVASLHLPSFDAHLTELTDDQAKYLGLNKNGPFKPNYYRY
modifications: left off: small tags and cut ends
notes: purified His-tagged IRBIT expressed in Sf9 cells
B2: GST-IRBIT: N-terminally GST-tagged full-length IRBIT expressed in Escherichia coli (protein, UniProt O43865 1-530, looked up)
chain: MSMPDAMPLPGVGEELKQAKEIEDAEKYSFMATVTKAPKKQIQFADDMQEFTKFPTKTGRRSLSRSISQSSTDSYSSAASYTDSSDDEVSPREKQQTNSKGSSNFCVKNIKQAEFGRREIEIAEQDMSALISLRKRAQGEKPLAGAKIVGCTHITAQTAVLIETLCALGAQCRWSACNIYSTQNEVAAALAEAGVAVFAWKGESEDDFWWCIDRCVNMDGWQANMILDDGGDLTHWVYKKYPNVFKKIRGIVEESVTGVHRLYQLSKAGKLCVPAMNVNDSVTKQKFDNLYCCRESILDGLKRTTDVMFGGKQVVVCGYGEVGKGCCAALKALGAIVYITEIDPICALQACMDGFRVVKLNEVIRQVDVVITCTGNKNVVTREHLDRMKNSCIVCNMGHSNTEIDVTSLRTPELTWERVRSQVDHVIWPDGKRVVLLAEGRLLNLSCSTVPTFVLSITATTQALALIELYNAPEGRYKQDVYLLPKKMDEYVASLHLPSFDAHLTELTDDQAKYLGLNKNGPFKPNYYRY
modifications: full-length N-terminal GST tag
notes: N-terminally GST-tagged full-length IRBIT expressed in Escherichia coli
B3: IRBIT-His: C-terminally His-tagged full-length IRBIT expressed in Escherichia coli (protein, UniProt O43865 1-530, looked up)
chain: MSMPDAMPLPGVGEELKQAKEIEDAEKYSFMATVTKAPKKQIQFADDMQEFTKFPTKTGRRSLSRSISQSSTDSYSSAASYTDSSDDEVSPREKQQTNSKGSSNFCVKNIKQAEFGRREIEIAEQDMSALISLRKRAQGEKPLAGAKIVGCTHITAQTAVLIETLCALGAQCRWSACNIYSTQNEVAAALAEAGVAVFAWKGESEDDFWWCIDRCVNMDGWQANMILDDGGDLTHWVYKKYPNVFKKIRGIVEESVTGVHRLYQLSKAGKLCVPAMNVNDSVTKQKFDNLYCCRESILDGLKRTTDVMFGGKQVVVCGYGEVGKGCCAALKALGAIVYITEIDPICALQACMDGFRVVKLNEVIRQVDVVITCTGNKNVVTREHLDRMKNSCIVCNMGHSNTEIDVTSLRTPELTWERVRSQVDHVIWPDGKRVVLLAEGRLLNLSCSTVPTFVLSITATTQALALIELYNAPEGRYKQDVYLLPKKMDEYVASLHLPSFDAHLTELTDDQAKYLGLNKNGPFKPNYYRY
modifications: full-length C-terminal His tag
notes: C-terminally His-tagged full-length IRBIT expressed in Escherichia coli

Legend:
GST-EL (IP3R) = molecular target: T1, GST-EL (IP3R) (Mus musculus, UniProt P11881, N1264K); experiment: [3H]IP3 binding to GST-EL
T1 construct: construct a GST-IP3R1 (1-2217) vector (termed GST-EL); made in house; host or cells: GST-EL: Sf9 cells; His-IRBIT: Sf9 cells or E. coli
T1 sequence (P11881 1-2217 N1264K): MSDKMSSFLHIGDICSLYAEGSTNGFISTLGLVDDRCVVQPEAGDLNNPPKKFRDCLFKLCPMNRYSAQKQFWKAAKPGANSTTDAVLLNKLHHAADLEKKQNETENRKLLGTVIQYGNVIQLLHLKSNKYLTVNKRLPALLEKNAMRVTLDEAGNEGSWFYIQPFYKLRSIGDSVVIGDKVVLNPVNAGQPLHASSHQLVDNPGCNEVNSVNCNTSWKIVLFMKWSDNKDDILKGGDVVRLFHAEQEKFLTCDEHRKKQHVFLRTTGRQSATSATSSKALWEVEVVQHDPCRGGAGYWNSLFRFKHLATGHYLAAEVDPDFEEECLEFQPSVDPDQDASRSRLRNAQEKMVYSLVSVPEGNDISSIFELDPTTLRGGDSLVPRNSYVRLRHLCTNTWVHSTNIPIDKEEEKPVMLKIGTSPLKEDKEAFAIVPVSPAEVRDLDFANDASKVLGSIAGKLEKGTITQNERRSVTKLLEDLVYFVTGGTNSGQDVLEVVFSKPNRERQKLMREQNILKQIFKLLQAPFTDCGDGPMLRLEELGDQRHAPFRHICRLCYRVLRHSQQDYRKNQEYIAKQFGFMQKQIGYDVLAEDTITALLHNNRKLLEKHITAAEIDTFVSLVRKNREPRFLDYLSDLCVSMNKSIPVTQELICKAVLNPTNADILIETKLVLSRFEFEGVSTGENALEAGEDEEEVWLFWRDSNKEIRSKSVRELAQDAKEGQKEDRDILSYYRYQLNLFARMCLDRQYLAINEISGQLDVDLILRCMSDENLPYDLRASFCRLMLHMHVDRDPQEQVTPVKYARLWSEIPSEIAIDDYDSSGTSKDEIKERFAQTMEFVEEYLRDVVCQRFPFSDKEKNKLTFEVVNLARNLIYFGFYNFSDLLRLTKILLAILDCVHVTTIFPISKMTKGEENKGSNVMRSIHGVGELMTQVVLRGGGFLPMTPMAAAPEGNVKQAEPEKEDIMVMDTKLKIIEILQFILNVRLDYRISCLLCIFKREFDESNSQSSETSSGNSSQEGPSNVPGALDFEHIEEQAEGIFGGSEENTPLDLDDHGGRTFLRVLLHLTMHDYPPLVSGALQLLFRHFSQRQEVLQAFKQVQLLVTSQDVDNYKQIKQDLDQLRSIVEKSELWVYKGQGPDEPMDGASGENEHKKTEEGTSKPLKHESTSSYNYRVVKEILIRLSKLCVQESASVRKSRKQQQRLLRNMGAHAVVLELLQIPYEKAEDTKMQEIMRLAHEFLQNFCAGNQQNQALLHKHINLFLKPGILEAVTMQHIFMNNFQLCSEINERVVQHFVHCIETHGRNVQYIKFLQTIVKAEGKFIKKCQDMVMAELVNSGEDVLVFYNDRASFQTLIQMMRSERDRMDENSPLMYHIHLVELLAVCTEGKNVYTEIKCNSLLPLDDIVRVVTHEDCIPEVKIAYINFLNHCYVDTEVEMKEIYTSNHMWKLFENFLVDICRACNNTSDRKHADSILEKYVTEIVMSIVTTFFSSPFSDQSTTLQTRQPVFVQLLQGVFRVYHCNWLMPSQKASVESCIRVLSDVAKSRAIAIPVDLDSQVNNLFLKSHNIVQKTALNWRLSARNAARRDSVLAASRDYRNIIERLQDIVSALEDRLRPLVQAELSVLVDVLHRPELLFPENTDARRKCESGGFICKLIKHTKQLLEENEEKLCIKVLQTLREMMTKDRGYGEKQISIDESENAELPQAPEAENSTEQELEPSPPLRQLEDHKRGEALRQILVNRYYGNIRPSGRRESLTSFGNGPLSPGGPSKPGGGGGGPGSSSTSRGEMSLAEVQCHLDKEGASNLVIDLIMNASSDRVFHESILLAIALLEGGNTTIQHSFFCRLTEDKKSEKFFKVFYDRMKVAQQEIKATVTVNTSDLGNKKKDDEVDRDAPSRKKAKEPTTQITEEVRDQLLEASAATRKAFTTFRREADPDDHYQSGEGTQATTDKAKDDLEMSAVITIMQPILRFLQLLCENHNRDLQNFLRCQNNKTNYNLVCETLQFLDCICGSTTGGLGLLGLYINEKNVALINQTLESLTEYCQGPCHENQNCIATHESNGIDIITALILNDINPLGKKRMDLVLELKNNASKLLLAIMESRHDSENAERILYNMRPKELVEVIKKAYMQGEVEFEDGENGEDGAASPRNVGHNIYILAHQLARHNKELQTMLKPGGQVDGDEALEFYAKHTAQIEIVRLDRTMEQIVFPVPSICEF
Description: (A) 0.2 μg of GST-EL was incubated with 0.1, 1, or 10 μg of purified His-tagged IRBIT expressed in Sf9 cells or E. coli in a solution containing 50 mM Tris-HCl (pH 8.0), 1 mM EDTA, and 1 mM 2-mercaptoethanol, for 30 min on ice. Then 8.7 nM [^3H]IP3 (PerkinElmer Life Sciences) was added to the samples and incubated for 10 min on ice (total volume was 50 μl). The samples were mixed with 2 μl of 50 mg/ml γ-globulin and 50 μl of 30% PEG6000, 50 mM Tris-HCl (pH 8.0), and incubated for 5 min on ice. Non-specific binding was measured in the presence of 10 μM cold IP3. After centrifugation at 20,000×g for 5 min, the precipitate was dissolved in SOLVABLE™ (Packard) and the radioactivity was measured with a liquid scintillation counter (Beckman Coulter). Results are shown as the mean±S.D. from three independent experiments. (B) Purified His-IRBIT expressed in Sf9 cells was incubated with alkaline phosphatase for 30 min at 37° C. prior to the IP3 binding assay described as in (A). (C and D) Scatchard analysis. 0.1 μg of GST-EL was incubated with or without 1 μg of purified His-tagged IRBIT expressed in Sf9 cells as described in (A). Then 2.17 nM [^3H]IP3 and 2-500 nM cold IP3 were added to the samples and incubated for 10 min on ice (total volume was 100 μl). Non-specific binding was measured in the presence of 10 μM cold IP3. [^3H]IP3 binding to GST-EL was measured as described in (A).
The effect of IRBIT on binding of IP3 to IP3R was examined. GST-EL (0.2 μg) was incubated with 0.1, 1, or 10 μg of purified His-tagged IRBIT expressed in Sf9 cells or E. coli in a solution containing 50 mM Tris-HCl (pH 8.0), 1 mM EDTA, and 1 mM 2-mercaptoethanol, for 30 min on ice. Then 8.7 nM [^3H]IP3 (PerkinElmer Life Sciences) was added to the samples and incubated for 10 min on ice (total volume was 50 μl). The samples were mixed with 2 μl of 50 mg/ml γ-globulin and 50 μl of 30% PEG6000, 50 mM Tris-HCl (pH 8.0), and incubated for 5 min on ice. Non-specific binding was measured in the presence of 10 μM cold IP3. After centrifugation at 20,000×g for 5 min, the precipitate was dissolved in SOLVABLE™ (Packard) and the radioactivity was measured with a liquid scintillation counter (Beckman Coulter). […] 0.1 μg of GST-EL was incubated with or without 1 μg of purified His-tagged IRBIT expressed in Sf9 cells as described in (A). Then 2.17 nM [^3H]IP3 and 2-500 nM cold IP3 were added to the samples and incubated for 10 min on ice (total volume was 100 μl). Non-specific binding was measured in the presence of 10 μM cold IP3. [^3H]IP3 binding to GST-EL was measured as described in (A). […] Bmax was not changed.

[1] = S-adenosylhomocysteine hydrolase activity in the hydrolytic direction; assay type: biochemical; details: recombinant protein expressed in Escherichia coli; hydrolysis direction
Description: The S-adenosylhomocysteine hydrolase activity in the hydrolytic direction of recombinant IRBIT-His (open circle), GST-IRBIT (triangle), GST (square), and S-adenosylhomocysteine hydrolase (closed circle) were measured according to the known method (43). Results are shown as the mean±standard deviation from three independent experimental results.
To assay S-adenosylhomocysteine hydrolase activity in the hydrolytic direction, the color developed by the reaction between the product (Homocysteine) and 5,5′-dithiobis (2-nitrobenzoic acid) (Sigma) was measured spectroscopically using the purified IRBIT-His (3.0 μg), GST-IRBIT (4.3 μg), GST (1.3 μg) and rabbit S-adenosylhomocysteine hydrolase (Sigma) (2.4 μg), according to the known method (43). Absorbance at 412 nm was measured 0, 5, 20 and 60 minutes later using a DU 640 spectrophotometer (Beckman). Results are shown as the mean±standard deviation from three independent experiments (FIG. 2).

[2] = 1 μg His-tagged IRBIT (Sf9), 0.1 μg GST-EL

Row | Molecule | Bmax (Scatchard analysis) (GST-EL (IP3R); [2]) | affinity of GST-EL to IP3 (Scatchard analysis) (GST-EL (IP3R); [2]) | effect on IP3 binding of GST-EL (GST-EL (IP3R); 0.1, 1 or 10 μg His-tagged IRBIT expressed in Sf9, 8.7 nM [3H]IP3) | S-adenosylhomocysteine hydrolase activity [1]
1 | B1 | not changed | decreased the affinity | dose-dependently suppressed | –
2 | B2 | – | – | – | neither of the recombinant IRBITs had enzyme activity
3 | B3 | – | – | – | neither of the recombinant IRBITs had enzyme activity
